Measured values published in PMC11375770, “Fragment-Based Interrogation of the 14–3–3/TAZ Protein–Protein Interaction” (Biochemistry, 2024).
Where no end group is shown, it is not given here. [ ]: non-standard residue; d: D form. pS = N[C@@H](COP(=O)(O)O)C(=O)O

T1: 14-3-3ζ (Homo sapiens, UniProt P63104)
T1 construct: gene YWHAZ; with ERα-derived phosphopeptide (similar Kd with TAZpS89 peptide)
T1 sequence (P63104 1-245): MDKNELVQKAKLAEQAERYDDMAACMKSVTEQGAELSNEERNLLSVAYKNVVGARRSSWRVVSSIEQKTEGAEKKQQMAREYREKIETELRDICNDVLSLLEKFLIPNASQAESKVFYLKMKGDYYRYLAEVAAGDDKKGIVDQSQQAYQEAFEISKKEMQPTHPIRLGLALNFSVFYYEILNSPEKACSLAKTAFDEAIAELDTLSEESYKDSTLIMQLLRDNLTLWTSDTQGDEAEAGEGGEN
T1 sequence (P03372 1-595 partner): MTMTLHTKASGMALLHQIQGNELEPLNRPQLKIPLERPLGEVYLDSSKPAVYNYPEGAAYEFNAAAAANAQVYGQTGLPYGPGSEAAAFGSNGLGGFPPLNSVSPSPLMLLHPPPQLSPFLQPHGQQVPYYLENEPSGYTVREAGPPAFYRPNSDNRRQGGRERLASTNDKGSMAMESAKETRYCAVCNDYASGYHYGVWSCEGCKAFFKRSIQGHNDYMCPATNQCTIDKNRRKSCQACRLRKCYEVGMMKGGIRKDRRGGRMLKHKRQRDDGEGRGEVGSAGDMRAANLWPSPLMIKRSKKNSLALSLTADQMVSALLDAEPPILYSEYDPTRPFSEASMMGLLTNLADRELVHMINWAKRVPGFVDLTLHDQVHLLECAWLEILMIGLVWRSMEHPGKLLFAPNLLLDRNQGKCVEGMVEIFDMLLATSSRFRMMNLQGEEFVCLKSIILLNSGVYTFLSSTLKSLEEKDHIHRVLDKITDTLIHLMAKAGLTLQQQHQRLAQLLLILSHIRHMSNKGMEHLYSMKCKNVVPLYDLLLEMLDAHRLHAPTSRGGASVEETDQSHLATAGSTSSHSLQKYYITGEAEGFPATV

T2: 14-3-3ζ labelled with NT647-NHS dye (human, UniProt P63104 1-245, NT647-NHS dye (Monolith Protein Labeling Kit RED-NHS); labelled residues not stated)
T2 construct: Same construct as m1, with the fluorescent dye for MST; also called labeled 14-3-3ζ; source: E. coli BL21 (DE3), pProEX HTb plasmid, purified (Ni2+-NTA), labelled with Monolith Protein Labeling Kit RED-NHS
T2 sequence (looked up): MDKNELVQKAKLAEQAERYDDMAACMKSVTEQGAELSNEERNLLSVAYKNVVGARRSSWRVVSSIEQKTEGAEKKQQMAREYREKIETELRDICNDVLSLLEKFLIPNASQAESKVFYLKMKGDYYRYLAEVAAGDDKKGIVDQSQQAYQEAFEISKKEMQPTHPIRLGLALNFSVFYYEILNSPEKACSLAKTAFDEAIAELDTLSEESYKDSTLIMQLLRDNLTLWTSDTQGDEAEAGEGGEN

T3: 14-3-3σΔC (C-terminally truncated after T231) (human, UniProt P31947 1-231)
T3 construct: also called 14-3-3sigma
T3 sequence (looked up): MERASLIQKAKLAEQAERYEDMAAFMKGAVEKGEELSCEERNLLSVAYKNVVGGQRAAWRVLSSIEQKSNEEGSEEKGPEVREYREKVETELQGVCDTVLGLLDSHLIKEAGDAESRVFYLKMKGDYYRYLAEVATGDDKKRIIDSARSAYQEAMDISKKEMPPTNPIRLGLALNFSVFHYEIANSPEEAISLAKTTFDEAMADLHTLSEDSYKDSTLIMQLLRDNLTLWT


Legend:
14-3-3ζ = target: T1, 14-3-3ζ; assay: MST dose-response; also DSF and WaterLOGSY NMR with the TAZ peptide complex; type: binding
[1] = target: T2, 14-3-3ζ labelled with NT647-NHS dye; assay: MST; TAZpS89 peptide titrated against a fixed concentration of NT647-labelled 14-3-3ζ; DPBS with 0.05% Tween20, 25 °C; apparent Kd; absence of fragment; conditions: both partners purified
[2] = target: T2, 14-3-3ζ labelled with NT647-NHS dye; assay: MST; TAZpS89 peptide titrated against a fixed concentration of NT647-labelled 14-3-3ζ; DPBS with 0.05% Tween20, 25 °C; apparent Kd; presence of 1 mM fragment TCF199; conditions: both partners purified
[3] = target: T3, 14-3-3σΔC (C-terminally truncated after …); assay: crystal structure; 14-3-3σΔC mixed 1:2 with the peptide, sitting drop, 0.095 M Hepes pH 7.5, PEG 400 26%, 0.19 M CaCl2, 5% glycerol; crystals soaked with 10 mM TCF199; conditions: both partners purified

Row | Kd (14-3-3ζ) [nM] | Kd [1] [nM] | Kd [2] [nM] | binding result [3] | Molecule
1 | 112000 ± 77000 | – | – | – | O=C(Nc1ccccc1)OCC12CCCCC1NCCC2 (stereo not shown) [TCF199]
2 | – | 1380 | 40 | binds | QHVRSH[pS]SPASLQ (TAZ-derived peptide surrounding phosphorylated Ser89; The methods of crystallisation say only 'the peptide'; also called TAZ-derived peptide; TAZ peptide; source: synthetic peptide (bought: Caslo, Denmark)) [TAZpS89 peptide]
